The results in this text go back to US7425614B2, “Neuroprotective therapeutics preventing ERK/MAPK activation through the NMDA receptor” (Children's Medical Center Corporation, priority 2003, dated 2008).

Holding throughout (assay type): cell-based, rat
For data set [1], the system named is ERK. As to the kind of experiment: phospho-ERK immunocytochemistry in cultured hippocampal neurons. As to conditions: cultured hippocampal neurons. The method, then:
Neurons from 18 day rat embryos were dissociated using trypsin and plated on coverslips coated with poly-L-ysine in minimal essential medium (MEM) with 10% NU serum (BD Biosciences, Le Pont de Claix, France) at densities of 30,000 cells/cm^2 as described (Brewer, G. J. (1995) J. Neurosci. Res. 42, 674-683). On days 7 and 11 of culture incubation, half of the medium was changed to MEM with 2% B27 supplement (Invitrogen).
Cells were transfected with cDNA for EGFP fusion proteins (LipofectAMINE 2000; Invitrogen) or by pseudoviral infection using a Sindbis expression system (Invitrogen). Neurons were incubated with cDNA and LipofectAMINE for 2 hr, rinsed, and incubated with culture media (MEM with 2% of B27 supplement) 17 hr prior to the experiment. For viral delivery, neuronal cultures were incubated 30 min with pseudoviral constructs diluted 200-500× in culture media. Cultures were rinsed and incubated in media for 15 hr. 0.1% to 1.5% of neurons were fluorescent after expressing LipofectAMINE-delivered constructs while Sindbis infection yielded 1%-10% transfection efficiency. Most of the experiments were performed on 12-14 days in vitro (div) cultures unless otherwise indicated.
Three hours before stimulation, TTX (1 μM), CNQX (40 μM), APV (100 μM), and nimodipine (5 μM) were added to neurons. For stimulation, coverslips with neurons were transferred into the following solutions.
(1) 100 μM NMDA, 10 μM glycine, 1 μM TTX, 40 μM CNQX, 5 μM nimodipine dissolved in culture media and incubated for 3 min. […]
After stimulation, neurons were fixed with 4% formaldehyde and labeled with rabbit anti-phospho-p44/42 ERK antibody (Cell Signaling) and with mouse anti-MAP2 antibody (Sternberger Monoclonals). Cy3-conjugated goat anti-rabbit IgG and Cy5-conjugated goat antimouse IgG (Jackson Immunoresearch Laboratories, West Grove, Pa.) were secondary antibodies. NMDA and all antagonists were from Tocris Neuramin. BDNF was from Calbiochem. Images were acquired with an Olympus Fluoview-500 confocal microscope (40×; 1.0 NA) and quantified using Olympus Fluoview software. In each experiment, the pERK fluorescence of the cell soma was measured for 25 neurons taken from consecutive fields. Phospho-ERK fluorescence data were normalized to the values obtained in nontransfected cells after NMDA stimulation. The background fluorescence (mean fluorescence of nonstimulated neurons) was subtracted prior to normalization.

In data set [2] the test system is NMDA receptor. As to the kind of experiment: evoked NMDA EPSCs in organotypic cultures of hippocampal slices. The method, then:
Organotypic cultures of hippocampal slices were prepared as described (Becq, H., et al. (1999) J. Neurosci. Res. 58, 553-566) according to modified technique of Stoppini et al. (J. Neurosci. Methods 37, 173-182 (1991)). Hippocampal slices (400 μm) were cut from postnatal 7-day-old rat brains and incubated in culture medium in 5% CO2. Infections were performed on the 6th day of slice incubation by local pressure injection of virus via a patch pipette (tip diameter ˜1 μm) into the CA1 region of the hippocampus.
For electrophysiological recordings, slices were placed in a recording chamber and perfused with ACSF including in mM: 119 NaCl, 2.5 KCl, 2 CaCl2, 2 MgCl2, 26 NaHCO3, 1 NaH2PO4, 11 glucose, 0.01 bicuculline, 0.01 CNQX, 0.002 2-chloroadenosine (pH 7.4), in 5% CO2/95% O2. Synaptic responses were evoked by bipolar electrode with monophasic voltage pulses (1-10 V, 200 μs). The stimulating electrodes were placed over Schaeffer collateral fibers. NMDA evoked EPSCs were recorded at different holding potentials before, during, and after ifenprodil application in order to measure the I-V relationship. For analysis, at least 5 NMDA-evoked EPSCs were averaged for every experimental condition.

Data set [3] relates to CA1 pyramidal neurons. As to the kind of experiment: Assay II: propidium iodide (PI) resistance in organotypic hippocampal slice cultures. Particulars: NMDA (50 μM) 20 minutes or ischemia; compared to non-transfected or GFP transfected control cells. The method, then:
(A) Survival of hippocampal neurons in culture exposed to Glutamate (100 μM) and Glycine (10 μM) for a 20 minute period. 14 div neuronal cultures were transfected with GFP, NR2B-BD or RasGRF1-BD 24 hours prior to analysis. The neuronal cultures were then incubated with glutamate for 20 minutes, washed with culture media and returned to the incubator for an additional 24 hours. The cells were then fixed with PFA and stained with a neuronal specific antibody, Map2. […] (B) Percentage of propidium iodide-resistant (surviving) neurons in organotypic hippocampal slices (P5+7div) expressing GFP, NR2B-BD or […] in control conditions and after 20 minutes exposure to NMDA (50 μM). The fluorescence of propidium iodide (PI) was measured 24 hours later. PI enters damaged cells and is a convenient tool to determine neuronal cell death. For PI staining, the slices were incubated in culture medium containing 0.1 mg/ml PI for 2 h. […]
Assay II: propidium iodide (PI) resistance. […] Cell death was measured as cellular uptake of PI (3,8-diamino-5-[3-([…])propyl]-6-phenyl phenanthridinium diiodide at 24 and 48 h after exposure to NMDA or ischemia. As shown in FIG. 7(B), the expression of both NR2B-BD and RasGRF1-BD increased the percentage of neuronal survival (e.g., the percentage of PI negative neurons) as compared to non-transfected or GFP transfected control cells.

B1: NR2B-BD: peptide of amino acids 886-1310 of the NR2B C-terminal domain that binds RasGRF1; used as NusA or EGFP fusion (protein)
chain: SPTATMNNTHSNILRLLRTAKNMANLSGVNGSPQSALDFIRRESSVYDISEHRRSFTHSDCKSYNNPPCEENLFSDYISEVERTFGNLQLKDSNVYQDHYHHHHRPHSIGSTSSIDGLYDCDNPPFTTQPRSISKKPLDIGLPSSKHSQLSDLYGKFSFKSDRYSGHDDLIRSDVSDISTHTVTYGNIEGNAAKRRKQQYKDSLKKRPASAKSRREFDEIELAYRRRPPRSPDHKRYFRDKEGLRDFYLDQFRTKENSPHWEHVDLTDIYKERSDDFKRDSVSGGGPCTNRSHLKHGTGEKHGVVGGVPAPWEKNLTNVDWEDRSGGNFCRSCPSKLHNYSSTVAGQNSGRQACIRCEACKKAGNLYDISKDNSLQELDQPAAPVAVTSNASSTKYPQSPTNSKAQKKNRNKLRRQHSYDTFVDL
modifications: left off: small tags and cut ends
notes: used as NusA or EGFP fusion
In the case of B1, in data set [1] (100 ng/ml BDNF), the “BDNF-induced ERK activation” value is given as “had no effect”. Also, in data set [1] (100 μM NMDA), the “NMDA-induced (NMDAR-dependent) ERK activation” value is “inhibit”. Also, in data set [1] (50 mM KCl), the “depolarization-induced ERK activation” value was “had no effect”. Besides, the “portion of the ifenprodil-sensitive component of the evoked EPSCs” value in data set [2] is reported as “Neither of the expressed peptides decreased”. Also, the “percentage of neuronal survival (PI negative neurons)” value in data set [3] is given as “increased”.
